The numbers were not newly measured in article PMC4188523, which cites them from elsewhere.

The target of one data set is Glu35 (UniProt position 53, CAAKFESNFNT). In words: NMR (according to the title of cited reference 36; not described in this article).
The target of another data set is Asp52 (UniProt position 70, TDGSTDYGILQ). The description is as above.

For the substance “Hen egg white lysozyme (HEWL, lysozyme C) (Gallus gallus)”, the results for the pKa entry in the data set with Glu35 and with Asp52 were “∼6.2” and “∼3.6”, respectively.
